Assay results as given in paper PMC9867772.

Target: Anthrol reductase CbAR from Cercospora sp. JNU001 (Cercospora sp. JNU001)
Assay: SEC; purified CbAR on gel filtration (Supplementary Fig. 1b, c); the column of the purification was Hiload 16/600 Superdex 200 pg in 25 mM Tris-HCl pH 8.0, 150 mM NaCl

With “Anthrol reductase CbAR from Cercospora sp. JNU001 (enzyme)” the stoichiometry N was 2.
